Measured values from patent US20260055150.

Assays:
[1] = target: mutant p53 (bacterially purified, commercial), P04637
[2] = target: wild type p53 (bacterially purified, commercial), P04637

B1: GRAIL C-terminal fragment (amino acids 229-428), recombinant (protein)
chain: YSARRLRNARAQSRKQRQLKADAKKAIGRLQLRTLKQGDKEIGPDGDSCAVCIELYKPNDLVRILTCNHIFHKTCVDPWLLEHRTCPMCKCDILKALGIEVDVEDGSVSLQVPVSNEISNSASSHEEDNRSETASSGYASVQGTDEPPLEEHVQSTNESLQLVNHEANSVAVDVIPHVDNPTFEEDETPNQETAVREIKS
[1]
  in vitro ubiquitination assay (UBE1, UBCH5, Myc-tagged ubiquitin), immunoblot: a C-terminal RF containing GRAIL fragment is efficient in polyubiquitinating mutant p53 as compared to wild type protein
[2]
  in vitro ubiquitination assay (UBE1, UBCH5, Myc-tagged ubiquitin), immunoblot: a C-terminal RF containing GRAIL fragment is efficient in polyubiquitinating mutant p53 as compared to wild type protein
